Experimental data from paper PMC5615437, “A novel bifunctional acetyl xylan esterase/arabinofuranosidase from Penicillium chrysogenum P33 enhances enzymatic hydrolysis of lignocellulose” (Microbial Cell Factories, 2017).

Substrate: CC(=O)Oc1ccc([N+](=O)[O-])cc1
Experiment: 4-nitrophenol release, Lineweaver-Burk plot
Assay type: biochemical, Penicillium chrysogenum
Conditions: pH 7, 40 °C, pNPA 0.2-2 mM

B1: rPcAxe (Penicillium chrysogenum) (protein)
chain: AASSGCGKQPTLTNGVHTINGRQYILKVPDNYDSNKPHHLVFGLHWRGGNMNSVANGDSIQPWYGLESRAQGSAILVSPDGKNAGWANTNGEDVALIDAIIQQVEGDLCVDSSSRFATGFSWGGGMSYALACSRAKEFKAVSVLSGGLISGCEGGYDPIAYLGIHGIDDQVLPIDEGVTLANKFVGNNKCQPTNIGKPASGSGGFVRSDFQGCSKPVSFIAYDGGHVGAPLGVGSSLAPDATWEFFMAA
Km: 465 µM
